Results as given in publication PMC7502549 (Journal of molecular biology, 2020).

Molecular target: the molecule itself
Assay: AUC

B1: Neurotrimin (NTM) extracellular domain, a.a. 36-311, with C-terminal linker and hexahistidine tag (domain or fragment, human, UniProt Q9P121 36-311, looked up)
chain: ATFPKAMDNVTVRQGESATLRCTIDNRVTRVAWLNRSTILYAGNDKWCLDPRVVLLSNTQTQYSIEIQNVDVYDEGPYTCSVQTDNHPKTSRVHLIVQVSPKIVEISSDISINEGNNISLTCIATGRPEPTVTWRHISPKAVGFVSEDEYLEIQGITREQSGDYECSASNDVAAPVVRRVKVTVNYPPYISEAKGTGVPVGQKGTLQCEASAVPSAEFQWYKDDKRLIEGKKGVKVENRPFLSKLIFFNVSEHDYGNYTCVASNKLGHTNASIMLF
modifications: N-linked glycosylation (extensive)
stoichiometry N: 2
